Patent US20240392039A1 (Regeneron, published 2024)

B1: H4H12175P (antibody, V domains shown)
VH: EVQLVESGGGVVQPGGSLRLSCAASGFTFNDYAMHWVRQAPGKGLEWVSLISGDGGNTYYADSVKGRLTISRDNSKNSLYLQMNSLRTEDTALYYCAKDKGWNFGYFDLWGRGTLVTVSS
VL: DIQMTQSPSSLSTSVGDRVTITCRASQNIDTYLNWYQQKPGKAPKLLIYDASSLQSGVPSRFSGSGSGTDFTLTITSLQPEDFATYYCQQNDNILHPLTFGGGTKVEIK
B2: H4H12161P (antibody, V domains shown)
VH: EVQLVESGGDLVQPGGSLRLSCAASGFTFSDHYMDWVRQAPGKGLDWIGRIRNKANAYNTEYAASVRGRFTISRDDSQNLLYLQMNSLKTDDTAVYYCVRVWNYAYFAMDVWGQGTTVTVSS
VL: DIQMTQSPSSLSASVGDRVTITCRSSQNIGIFLNWYQQKPGEAPNLLISAASSLHSGVPSRFSGSGSGTDFTLTIGSLQPEDFATYYCQQTYNTIFTFGPGTKVDIK
B3: H4H12176P2 (antibody, V domains shown)
VH: EVQLVESGGGLVQPGGSLRLSCAASGFHSNRYWMDWVRQAPGKGLEWVANIKQDGSEENYVDSVKGRFTISRDNAKNSLYLQMNSLRAEDTAVYYCARDRSTSWVPYWFFDLWGRGTLVTVSS
VL: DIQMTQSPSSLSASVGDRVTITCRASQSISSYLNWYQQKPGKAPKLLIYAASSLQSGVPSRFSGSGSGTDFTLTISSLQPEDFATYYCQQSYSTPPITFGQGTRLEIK
B4: H4H12176P2xH4H12177P2 bispecific antibody (bispecific antibody, V domains shown)
VH 1: B3 VH
VH 2: EVQLVESGGGVVQRGESLRLSCSASDFIFKDYAMYWVRQIPGKGLEWISLISGDGDTTWYGDSVKGRFTISRDNNENSLFLQMNDLRTEDTAMYYCARDMGWNFFQLQYWGQGTLVTVSS
VL: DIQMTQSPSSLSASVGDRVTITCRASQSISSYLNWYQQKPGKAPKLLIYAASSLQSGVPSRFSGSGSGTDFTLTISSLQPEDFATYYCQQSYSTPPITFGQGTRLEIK
B5: H4H12177P2 (antibody, V domains shown)
VH: B4 VH 2
VL: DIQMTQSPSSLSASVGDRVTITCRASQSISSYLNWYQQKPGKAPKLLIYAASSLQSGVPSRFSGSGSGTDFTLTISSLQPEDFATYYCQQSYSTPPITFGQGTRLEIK
B6: H4H12171P (antibody, V domains shown)
VH: EVQLVESGGGVVRPGGSLRLSCAASGFTFDEYGMTWVRQVPGKGLEWVSGITWNGGFTDYTDSVKGRFTSSRDNAKNSLYLQMNSLRAEDTALYYCARDGYSSSWGAYDIWGQGTMVTVSS
VL: DIQMTQSPSSLSASVGDRVTITCRASQSISTYLNWYQQKPGKAPKLLIYAASSLQSGVPLRFSGSGSGTDFTLTISSLQPEDFASYFCQQSYSTPYTFGQGTKLEIK
B7: H4H12170P (antibody, IgG4, V domains shown)
VH: QVQLVESGGGVVQPGRSLRLSCAASGFTFSGYGMHWVRQAPGKGLEWVALIWLDGSNDYYADSVKGRFTISRDNSKNTLYLQMNRLRAEDTAVYYCARDGPVAAIPDYWGQGTLVTVSS
VL: DIQMTQSPSTLSASVGDRVTITCRASQSISRWLAWYQLKPGKAPKLLIYKASSLESGVPSRFSGSGSGTDFTLTISSLQPDDFATYYCQQYNTYSYTFGQGTKLEIK

How the values were obtained:
Test in all cases: cell-based or functional assay
[1] = molecular target: T1, human complement C5 (human, UniProt P01031 19-1676)
T1 sequence (P01031 19-1676 limits assumed): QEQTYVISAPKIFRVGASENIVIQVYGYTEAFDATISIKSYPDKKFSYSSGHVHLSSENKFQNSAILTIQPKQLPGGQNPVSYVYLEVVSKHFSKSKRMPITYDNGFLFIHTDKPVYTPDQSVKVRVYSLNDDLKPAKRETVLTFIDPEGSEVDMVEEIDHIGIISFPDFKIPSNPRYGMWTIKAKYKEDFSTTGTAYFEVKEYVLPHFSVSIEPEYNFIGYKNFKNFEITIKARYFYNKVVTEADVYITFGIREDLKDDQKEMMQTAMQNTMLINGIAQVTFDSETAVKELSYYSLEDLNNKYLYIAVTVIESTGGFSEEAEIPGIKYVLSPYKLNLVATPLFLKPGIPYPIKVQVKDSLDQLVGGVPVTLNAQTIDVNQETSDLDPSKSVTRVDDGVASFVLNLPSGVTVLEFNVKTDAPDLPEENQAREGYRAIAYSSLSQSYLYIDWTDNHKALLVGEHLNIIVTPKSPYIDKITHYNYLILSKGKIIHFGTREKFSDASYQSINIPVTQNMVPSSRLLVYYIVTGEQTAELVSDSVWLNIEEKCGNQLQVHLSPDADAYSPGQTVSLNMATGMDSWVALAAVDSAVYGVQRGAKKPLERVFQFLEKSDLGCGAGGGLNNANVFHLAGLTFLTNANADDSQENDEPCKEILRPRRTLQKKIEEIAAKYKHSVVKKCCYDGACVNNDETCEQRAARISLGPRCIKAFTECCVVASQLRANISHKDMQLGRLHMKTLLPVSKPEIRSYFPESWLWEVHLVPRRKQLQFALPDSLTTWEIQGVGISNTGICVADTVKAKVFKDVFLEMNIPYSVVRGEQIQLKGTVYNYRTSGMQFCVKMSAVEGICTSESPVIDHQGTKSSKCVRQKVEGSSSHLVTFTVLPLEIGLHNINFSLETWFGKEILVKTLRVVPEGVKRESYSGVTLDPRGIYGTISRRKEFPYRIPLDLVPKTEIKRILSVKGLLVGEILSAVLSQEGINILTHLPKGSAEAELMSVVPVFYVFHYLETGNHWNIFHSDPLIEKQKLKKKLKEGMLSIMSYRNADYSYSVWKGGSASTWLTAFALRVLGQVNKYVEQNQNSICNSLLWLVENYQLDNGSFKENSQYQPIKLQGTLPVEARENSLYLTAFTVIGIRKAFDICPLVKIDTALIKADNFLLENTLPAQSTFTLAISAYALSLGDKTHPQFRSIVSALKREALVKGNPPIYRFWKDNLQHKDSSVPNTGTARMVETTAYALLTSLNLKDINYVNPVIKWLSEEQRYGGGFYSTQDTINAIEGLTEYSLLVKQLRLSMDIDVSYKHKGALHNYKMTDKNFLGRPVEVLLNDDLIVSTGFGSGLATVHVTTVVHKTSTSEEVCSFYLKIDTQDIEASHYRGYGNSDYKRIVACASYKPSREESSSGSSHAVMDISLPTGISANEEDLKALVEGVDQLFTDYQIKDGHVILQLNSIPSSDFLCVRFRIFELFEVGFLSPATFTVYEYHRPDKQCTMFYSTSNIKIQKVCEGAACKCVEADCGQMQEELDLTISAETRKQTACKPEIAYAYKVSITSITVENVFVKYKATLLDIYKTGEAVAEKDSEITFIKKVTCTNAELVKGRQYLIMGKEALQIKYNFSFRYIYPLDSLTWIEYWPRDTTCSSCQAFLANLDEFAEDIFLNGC

[2] = molecular target: T1, human complement C5; remark: listed apart in the source
[3] = molecular target: T1, human complement C5; remark: listed apart in the source

| Binder | % Max Inh. of Lysis (alternative pathway hemolysis of rabbit RBC, 25% NHS, 30 min) [1] | % Max Inh. of Lysis (alternative pathway hemolysis, 25% NHS, 30 min) [2] | mAb/C5 ratio that blocked hemolysis to close to zero (25% C5-deficient NHS, 145 nM C5 add-back) [3] |
| --- | --- | --- | --- |
| B1 | 77.8% |  |  |
| B2 | 59.2% |  |  |
| B3 | 62.8% | 27.4% |  |
| B4 |  | 98.1% | ~1.29 mAb/C5 molar ratio |
| B5 | 76.2% | 42.6% |  |
| B6 | 36.6% |  |  |
| B7 | 88.7% |  |  |
